The record followed here is patent US20230279128A1 (SYNTHEKINE, published 2023).

To fix the notation:
T1: extracellular domain of hIFNgR2 (human, UniProt P38484 28-247)
T1 construct: also called hIFNgR2 ECD; hIFNgR2-ECD
T1 sequence: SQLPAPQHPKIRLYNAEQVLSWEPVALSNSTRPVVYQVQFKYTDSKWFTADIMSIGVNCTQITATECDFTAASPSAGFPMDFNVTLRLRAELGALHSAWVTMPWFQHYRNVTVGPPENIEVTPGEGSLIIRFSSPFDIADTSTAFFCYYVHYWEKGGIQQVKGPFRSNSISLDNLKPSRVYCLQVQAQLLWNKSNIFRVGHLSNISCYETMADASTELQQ

T2: extracellular domain of mIFNgR2 (mouse)
T2 construct: also called mIFNgR2 ECD; mouse IFNgR2 extracellular domain
T2 chain: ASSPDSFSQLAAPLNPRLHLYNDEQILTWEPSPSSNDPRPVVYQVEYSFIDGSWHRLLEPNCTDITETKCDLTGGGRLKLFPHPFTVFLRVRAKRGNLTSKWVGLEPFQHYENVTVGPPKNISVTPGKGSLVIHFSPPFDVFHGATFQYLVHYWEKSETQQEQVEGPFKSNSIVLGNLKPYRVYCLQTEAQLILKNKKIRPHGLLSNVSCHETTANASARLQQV

B1: DR936 (VHH)
VHH: EVQLVESGGGLVQAGGSLRLSCAASGRTFSSVAMAWFRQAPGKEREFVSAISSGGGSTDYADSVKGRFTISKDNAKNTMYLQMDSLKPEDTAVYYCAARDYSSRRYYQSRYEYDLWGLGTQVTVSS
B2: DR938 (VHH)
VHH: QVQLVESGGGLVQPGGSLRLSCTASGRPRTTYAMGWFRQAPGKEREIVAAISKAGGSTYVADSAKGRFAISKDNAKNTVYLQMNSLKPEDTAVYYCAARAGFAAQIFEYDYWGQGTLVTVSS
B3: DR944 (VHH)
VHH: QVQLVESGGGLVQAGDSLRLSCAASGRTFTFSTHNMGWFRQAPGKEREFVGGIMWTSRASYADSVKGRFTVSRDNAKNTVYLQMNSLKPEDTAVYYCAAAWYGNSGASYDYWGQGTQVTVSS
B4: DR928 (VHH)
VHH: QVQLVESGGGLVQAGGSLRLSCAASGRTFSNYRMGWFRQAPGKEREFVAAISRGGGTTLYADSVKGRFTISRDNAKNTVDLQMNRLKPEDTAVYFCAAGDFSTTWDEYNYWGQGTQVTVSS
B5: DR942 (VHH)
VHH: QVQLVESGGGLVQAGGSLRLSCVASGRTFTGYAMGWFRQAPGKEREFVAVITWSGATTYYSASVKGRFTLSRDNAKNTVYLQMNSLKSEDTAVYYCAIRIRDGVSPENPNEYGYWGQGTQVTVSS
B6: DR947 (VHH)
VHH: QVQLVESGGGLVQAGGSLRLSCAASGGSFGRYTMGWYRQAPGKEREFVAVISWSGTNTYYADSVKGRFTISRDNAKNTMYLQMNDLKPEDTAVYYCAARETYYSHWDERMEYDYWGQGTQVTVSS
B7: DR950 (VHH)
VHH: QVQLVESGGGLVQAGGSLRLSCAASGLTTSSAALAWFRQAPGKERELDPTITSGGGSTYYADSVKGRFTISKDNAKNTLYLQMSSLKPEDTAVYYCAARFYSTTYYYREHEYSDWGQGTQVTVSS
B8: DR953 (VHH)
VHH: QVQLVESGGGLVQAGDSLRLSCAASGPTFSTYAMAWFRQAPGKEREFVAAITQSGRTTYYEDSVKGRFTISKDNAKNTLYLQMNSLQPEDTAVYYCAARDLWSDSPDDWRIYSFWGQGTQVTVSS
B9: DR941 (VHH)
VHH: QVQLVESGGGLVEAGGSLRLACAASGSIFRLNLMGWYRQAPGKQRELVAHVGTTGNTAYADSVKGRFTISKDDAKNMVFLQMNSLKPEDTAVYYCYADRWGQFSWGQGTQVTVSS
B10: DR948 (VHH)
VHH: QVQLVESGGGLVQAGDSLRLSCVASGSIDSSYYVSWFRQAPGKERDLVAAINWGDSRTAYADSVKGRFTISRDNAKNTVYLQMHSLRPNDTAVYYCASRIGLGGPVVAAPTRYPYWGQGTLVTVSS
B11: DR937 (VHH)
VHH: QVQLVESGGGLVQPGGSLRLSCAASGRTFRSYSMGWFRQAPGKEREFVAAISWYSGTTYYADPVKGRFTISRDDAKNTLYLQMNSLKPEDTAVYYCAANEIATMESSNDYWGQGTQVTVSS
B12: DR943 (VHH)
VHH: QVQLVESGGGLVQAGGSLRLSCVASGRTVGYGMAWFRQAPGKQRDVVAAITWSGTSTYYPDSVKGRFTISRDNAKNTMYLQMSSLKPEDTAVYYCAAGSRRRVGVDVGGYDYWGQGTQVTVSS
B13: DR952 (VHH)
VHH: QVQLVESGGGLVQAGGFLRLSCAASGRTFSSLAMAWFRQAPGKEREFVAAISRSGGSTDYADSVKGRFTISRDNAKSTLYLQMSSLKPEDTAVYYCAARDYSTLQYYNEYEYSDWGQGTLVTVSS
B14: DR939 (VHH)
VHH: EVQLVESGGGLVQAGGSMRLSCANSGRTFGTYAMGWFRQSPGKERERVASIDRDGSMSYYADSVKGRFTISGDNAKNTVYLQMNSLKPEDTAVYYCAASRRAVISLQTVDYWGQGTQVTVSS
B15: DR940 (VHH)
VHH: EVQLVESGGRLVQTGGSLRLSCAASGRTFSNYAMGWFRQAPGKEREFVAAISWYSGNTYYADSVKGRFTISRDNAKNTMYLQMNSLKPEDTAVYYCAANQIATMISVGDYWGQGTLVTVSS
B16: DR945 (VHH)
VHH: LVESGGGLVQLVQAGGSLRLSCAASGRTFSGYNMGWFRQAPGKEREFVAAIAWAGSRTYYTDSVKGRFTISRDNAKNTMYLQMNTLRPEDTAVYYCAAHDETYYRLDRVDLYTHWGQGTQVTVSS
B17: DR949 (VHH)
VHH: QVQLVESGGGLVQAGGSLRLSCAASESILRFNVMSWLRQAPGKQRELVAVITSGGSTNYADSVKGRFTISRDNAKNTVYLQMNSLKPEDTAVYYCAADESGQYYWGQGTQVTVSS
B18: DR927 (VHH)
VHH: QVQLVESGGGLVQAGGSLRLSCAASGRTFTSYAMNWFRQAPGKEREFVAAISWSSGNTYVADSVKGRFAISRDKAKNTMYLQMNSLAPEDTAVYYCAATTIATMSDEYTYWGQGTQVTVSS
B19: DR946 (VHH)
VHH: QVQLVESGGGLVQPGESLRLSCAASGPFTRYAMGWFRQAPGKEREFVAAISWSSGNTYYVDSVKGRFTISRDNAKNTMYLQMNSLKPEDTAVYYCAANEVATMSGPDDYWGQGTQVTVSS
B20: DR951 (VHH)
VHH: QVQLVESGGGLVQAGGSLRLSCAASGRTFGTSFGSLSMGWFRQAPGKEREFVAAISRNIGRTYYADSVKDRFTISRDNAKNTASLQMNSLEPEDTAVYNCAATNSYDDLRRSYAYDYWGQGTQVTVSS

The target in the first assay is T1, extracellular domain of hIFNgR2. The assay can be described thus: phage biopanning and periplasmic extract ELISA (PE-ELISA). On the procedure: Upon completion of the biopanning of Example 3, three 96-well plates of individual phage clones were isolated in order to perform periplasmic extract ELISA (PE-ELISA) on IFNgR2 coated plates to identify positive VHH binders that selectively bound IFNgR2. A 96-well plate was coated with IFNgR2 and PBS under the same conditions. Next, wells were blocked at 37° C. for 1 h. Then, 100 μl of extracted antibodies was added to each well and incubated for 1 h. Subsequently, 100 μl of anti-tag polyclonal antibody conjugated to HRP was added to each well and incubated at 37° C. for 1 h. Plates were developed with TMB substrate. The reaction was stopped by the addition of H2SO4. Absorbance at 450 nm was read on a microtiter plate reader. Antibodies with absorbance of the antigen-coated well at least threefold greater than PBS-coated control were considered to provide specific binding to IFNgR2. Positive clones were sequenced, and sequences analyzed to identify unique clonotypes
(An ELISA detects its analyte on a solid surface through an enzyme-linked reagent.)
Take B1: the binding result is “binds”.

On to B2, for which the binding result is recorded as “binds”. Consider B3, for which the binding result is “binds”. In the case of B4, the binding result is reported as “binds”. Turning to B5, the binding result is “binds”. Consider B6, for which the binding result is “binds”. With B7, the binding result is listed as “binds”. With B8, the binding result is reported as “binds”.

In the case of B9, the binding result is “binds”.

B10: the binding result is given as “binds”. For B11, the binding result is “binds”. In the case of B12, the binding result is on record as “binds”.

Take B13: the binding result is “binds”. For B14, the binding result was “binds”. Take B15: the binding result was “binds”. In the case of B16, the binding result was “binds”. The same measure, in the same setting: the value for B17 was “binds”; that for B18 was “binds”. With B19, the binding result is on record as “binds”. For the molecule B20, the binding result was “binds”.

For a further assay, the target named is T2, extracellular domain of mIFNgR2. The assay can be described thus: flow cytometry, cross-reactivity.
With B1, the binding result is “binds”. On to B2, for which the binding result is listed as “binds”. Take B3: the binding result is listed as “binds”. On the same count and under the same terms, the result for B4 reads “binds”; that for B5, “binds”. On the same count and under the same terms, the result for B6 reads “binds”; that for B7, “binds”.

Turning to B8, the binding result was “binds”. As for B9, the binding result is listed as “binds”. For the molecule B10, the binding result is “binds”. As for B11, the binding result is reported as “binds”.

In the case of B12, the binding result is “binds”. On the same count and under the same terms, the value for B13 was “binds”; that for B15 was “binds”.

For the molecule B16, the binding result is “binds”. Take B17: the binding result is “binds”.

With B18, the binding result is “binds”. Consider B19, for which the binding result is “binds”.

In the case of B20, the binding result was “binds”.
